In test [1] the target is Recombinant human CD16aV (V polymorphism at position 158 of CD16) (human, UniProt P08637 17-208). The experiment in a line: SPR; produced in HEK. On the technique in general: In SPR one partner is held on a chip, and binding of the other changes the refractive index at the surface.
The target in test [2] is Recombinant human FcRn (FcRn alpha and beta2-microglobulin) (human, UniProt P55899 24-290; P61769 21-119). Kind of test: SPR; produced in HEK.
Sequence of Recombinant human FcRn (FcRn alpha and beta2-microglobulin) (P55899 24-290, chain 1 of 2): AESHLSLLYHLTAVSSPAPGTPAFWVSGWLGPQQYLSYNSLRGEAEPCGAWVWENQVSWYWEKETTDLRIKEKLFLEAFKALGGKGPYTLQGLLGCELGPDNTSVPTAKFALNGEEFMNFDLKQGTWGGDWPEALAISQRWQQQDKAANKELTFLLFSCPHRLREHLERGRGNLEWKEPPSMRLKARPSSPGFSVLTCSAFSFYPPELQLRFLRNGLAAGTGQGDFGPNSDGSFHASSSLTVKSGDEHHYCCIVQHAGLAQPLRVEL
Sequence of Recombinant human FcRn (FcRn alpha and beta2-microglobulin) (P61769 21-119, chain 2 of 2): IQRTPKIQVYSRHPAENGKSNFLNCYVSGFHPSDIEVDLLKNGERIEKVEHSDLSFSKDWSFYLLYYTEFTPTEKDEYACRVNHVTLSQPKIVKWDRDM

Sequence of Recombinant human CD16aV (V polymorphism at position 158 of CD16) (P08637 17-208 F176V): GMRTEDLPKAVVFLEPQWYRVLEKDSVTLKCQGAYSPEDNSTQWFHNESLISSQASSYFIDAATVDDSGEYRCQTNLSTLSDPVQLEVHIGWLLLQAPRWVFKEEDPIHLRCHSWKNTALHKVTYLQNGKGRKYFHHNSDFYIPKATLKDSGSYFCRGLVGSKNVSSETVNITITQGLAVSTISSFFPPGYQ

B1: A3A-184A (K334N/P352S/A378V/V397M) Fc fragment (other)
chain: DKTHTCPPCPAPELLGGPSVFLFPPKPKDTLMISRTPEVTCVVVDVSHEDPEVKFNWYVDGVEVHNAKTKPREEQYNSTYRVVSVLTVLHQDWLNGKEYKCKVSNKALPAPIENTISKAKGQPREPQVYTLSPSRDELTKNQVSLTCLVKGFYPSDIVVEWESNGQPENNYKTTPPMLDSDGSFFLYSKLTVDKSRWQQGNVFSCSVMHEALHNHYTQKSLSLSPGK
As a reminder, the Kd is the free concentration of one partner at which half of the binding sites on the other are occupied at equilibrium, for simple one-to-one binding. For B1, the Kd in test [1] is 228 nM; in test [2], 11.7 nM.

B2: T5A-74J (E258I/N315D/A330V/N361D/A378V/N434Y) Fc fragment (other)
chain: DKTHTCPPCPAPELLGGPSVFLFPPKPKDTLMISRTPIVTCVVVDVSHEDPEVKFNWYVDGVEVHNAKTKPREEQYNSTYRVVSVLTVLHQDWLDGKEYKCKVSNKALPVPIEKTISKAKGQPREPQVYTLPPSRDELTKDQVSLTCLVKGFYPSDIVVEWESNGQPENNYKTTPPVLDSDGSFFLYSKLTVDKSRWQQGNVFSCSVMHEALHYHYTQKSLSLSPGK
For the molecule B2, the results for the Kd in test [1] and in test [2] were 2820 nM and 30.2 nM, respectively.

B3: T5A-74M (Y296W/N315D/A330V/N361D/A378V/N434Y) Fc fragment (other)
chain: DKTHTCPPCPAPELLGGPSVFLFPPKPKDTLMISRTPEVTCVVVDVSHEDPEVKFNWYVDGVEVHNAKTKPREEQWNSTYRVVSVLTVLHQDWLDGKEYKCKVSNKALPVPIEKTISKAKGQPREPQVYTLPPSRDELTKDQVSLTCLVKGFYPSDIVVEWESNGQPENNYKTTPPVLDSDGSFFLYSKLTVDKSRWQQGNVFSCSVMHEALHYHYTQKSLSLSPGK
As for B3, the values for the Kd in test [1] and in test [2] were 308 nM and 27.3 nM, respectively.

B4: T5A-74L (E294A/N315D/A330V/N361D/A378V/N434Y) Fc fragment (other)
chain: DKTHTCPPCPAPELLGGPSVFLFPPKPKDTLMISRTPEVTCVVVDVSHEDPEVKFNWYVDGVEVHNAKTKPREAQYNSTYRVVSVLTVLHQDWLDGKEYKCKVSNKALPVPIEKTISKAKGQPREPQVYTLPPSRDELTKDQVSLTCLVKGFYPSDIVVEWESNGQPENNYKTTPPVLDSDGSFFLYSKLTVDKSRWQQGNVFSCSVMHEALHYHYTQKSLSLSPGK
B4: the dissociation constant (Kd) in test [1] turned out to be 4400 nM; in test [2], 37.9 nM.

B5: T5A-74K (K290Y/N315D/A330V/N361D/A378V/N434Y) Fc fragment (other)
chain: DKTHTCPPCPAPELLGGPSVFLFPPKPKDTLMISRTPEVTCVVVDVSHEDPEVKFNWYVDGVEVHNAKTYPREEQYNSTYRVVSVLTVLHQDWLDGKEYKCKVSNKALPVPIEKTISKAKGQPREPQVYTLPPSRDELTKDQVSLTCLVKGFYPSDIVVEWESNGQPENNYKTTPPVLDSDGSFFLYSKLTVDKSRWQQGNVFSCSVMHEALHYHYTQKSLSLSPGK
B5: the Kd in test [1] was found to be 3180 nM; in test [2], 16.6 nM.

B6: T5A-74I (T260A/N315D/A330V/N361D/A378V/N434Y) Fc fragment (other)
chain: DKTHTCPPCPAPELLGGPSVFLFPPKPKDTLMISRTPEVACVVVDVSHEDPEVKFNWYVDGVEVHNAKTKPREEQYNSTYRVVSVLTVLHQDWLDGKEYKCKVSNKALPVPIEKTISKAKGQPREPQVYTLPPSRDELTKDQVSLTCLVKGFYPSDIVVEWESNGQPENNYKTTPPVLDSDGSFFLYSKLTVDKSRWQQGNVFSCSVMHEALHYHYTQKSLSLSPGK
For the molecule B6, the Kd amounted to 3510 nM in test [1] and 32.5 nM in test [2].

B7: J3B-118A (A378V/P396L/N421T) Fc fragment (other)
chain: DKTHTCPPCPAPELLGGPSVFLFPPKPKDTLMISRTPEVTCVVVDVSHEDPEVKFNWYVDGVEVHNAKTKPREEQYNSTYRVVSVLTVLHQDWLNGKEYKCKVSNKALPAPIEKTISKAKGQPREPQVYTLPPSRDELTKNQVSLTCLVKGFYPSDIVVEWESNGQPENNYKTTPLVLDSDGSFFLYSKLTVDKSRWQQGTVFSCSVMHEALHNHYTQKSLSLSPGK
Consider B7, for which the Kd in test [1] was determined as 1840 nM.

B8: A3A-105D (G316D/K326E/A378V) Fc fragment (other)
chain: DKTHTCPPCPAPELLGGPSVFLFPPKPKDTLMISRTPEVTCVVVDVSHEDPEVKFNWYVDGVEVHNAKTKPREEQYNSTYRVVSVLTVLHQDWLNDKEYKCKVSNEALPAPIEKTISKAKGQPREPQVYTLPPSRDELTKNQVSLTCLVKGFYPSDIVVEWESNGQPENNYKTTPPVLDSDGSFFLYSKLTVDKSRWQQGNVFSCSVMHEALHNHYTQKSLSLSPGK
Turning to B8, the Kd stood at 1210 nM in test [1] and 231 nM in test [2].
